The nature of the data set: soluble on expression in E. coli; label from the status in PepcDB or PDB records.
For the sequence “MGSDKIHHHHHHMELGIIYSGEFGKRFVSNLAYPYLCPTFGACGINGCDYCKRYDFSSSIVYAKELAEPQEIGLYVEEPESYLEPFECDIAVAINVHPDILVSLPEIGEFKALIVPACNQNWCLPGLRKQLAEKCGELGIEFASPKPFCSLTGNSGWISRFIDEFKIGRPEFRVERGGDAIKKVEVIKSDPCGSAYFVAKRMTGYIIESKEDFWKEIHQHQCAYPCMASMDRDVELKEAPFHLAGYIMVYQFSTAAGVEAEEFVPEHFREIVCRAR”, the “soluble on expression in E. coli” value is recorded as “not soluble”.

As for “MGSDKIHHHHHHMELKILVTGGNVFVPGRLNAHFSTVVYLEHKDRRIIIDPGNLSSMDELEEKFSELGISPDDITDVLFTHVHLDHIFNSVLFENATFYVHEVYKTKNYLSFGTIVGRIYSKVISSWKNVVLLKGEESLFDEKVKVFHTPWHAREHLSFLLDTENAGRVLITGDITPNRLSYYDIIKGYGSVQVKNFLDRVGRIDLLVFPHDAPLKPEVKK”, the “soluble on expression in E. coli” value is recorded as “soluble”.

“MGSDKIHHHHHHMENILDKLGIELNEQTRLTNDSKFTFNCHSGLSCFNTCCSNLDIVLTPYDILRMKNRLGLTSVEFISEYTEPVIQKESKLPFLKLKLGDEGKCRFVAAEGCTVYGDRPAACRYYPLGFGIYKNEEAGDDFYFLIREDHCKGFEEEREWTVGEWRKNQGVDEYDDKNRVWMEVILNKKLYSPELEPDEKSLKMFFMASYDLDAFRDFVFESRFLDVFDIEEERLEMIKNDEAELMLFAHQWLLFALFKKPTMNLKQV”: the “soluble on expression in E. coli” value is reported as “not soluble”.

In the case of “MGSDKIHHHHHHMEPEASPLFIDFAGISAGEKILDVGCGTGSLTFALLKAADLKEITAIDDSPVFVAETIRRSTDPRIKVEQGDACALAFDDGAFDRALALLVLHFVTDAGKAVAEMRRVVRPGGVVAASVWDHLGGMPGMRMMVDTVAALSEAGRQFRERYCFQPMMRPGEMKATFIEQGLLQVSETQLMIRMDYSNFDDYWSPMVAGEGPFGKFLSSLDAPDRARAEAAVREAYQAGQPDGPRSFANVAWACRGIAP”, the “soluble on expression in E. coli” value is “not soluble”.

In the case of “MGSDKIHHHHHHMEQLLHYVWKHKIFPLKELKTTTGQQVEVIDTGLANTDAGPDFFNAKLKLDGVLWIGNIEIHERSSDWFKHGHHADAGYNSVILHIASEIDTEISRSNGERIPQIQLICPEAVRTNYKELLETDSYPPCYRIIPSLPPFTAHSWMTALQMERFEQKATLLNERLKRCQGNWEDAFFITLARNFGFGLNGDAFETWAHRLPFRAVDKHRNDLFQIEAIFFGQAGILEDSDGDGYYLRLKKEYTYLQHKFGLIPMDASLWRFLRLRPANFPHIRIAQLACLYHRAYGLLSRIMETETLQGVRDILKGGTSEYWLTHYTFGGSSPSRPKTLSNTSLDLLIINTVVTFLYAYGLHKGNRVLCARAGCFLEELKAENNYITRMWEQCGMKASNAADSQALIQLKKEYCDKKKCLYCRIGYEYLKRS”, the “soluble on expression in E. coli” value is listed as “not soluble”.

Take “MGSDKIHHHHHHMEQVDMGPAQAPPLFSGQLDARTRAASVDLHGCNVDYWVYEPVSVTAETRTMLVVHGFRGDHHGLLRVADQLPDMRLIMPDLPGFGSSDAFPDGGHSVRRYGQFISDFMAALGLGPDTVLLGHSFGSIVASHFAAANPGAVFPLILINPIAAPALEGPKGVMTKLAVIYYEASARLPRALGLYLLRSRLIVRVMSMAMAKTRDKQLLQFIHGQHNAYFSAFANRDSLLESFKASVGSNVSEVAPDLSLPVLLIAGEKDEIAMLPDQHKLQALLPDGTLEVIPGVGHLIHYETPQPAAGFIRRFLKDHPA”: the “soluble on expression in E. coli” value was “not soluble”.

Consider “MGSDKIHHHHHHMERMALHFEILENGKVKCLLCPHECVLDNGQIGLCGVRKNKNGSLVSLNYGEVTAIAMDPIEKKPLFHFNPGEQIFSVGTFGCNFKCGFCQNWEISQAKPETKRVTPEQLVKIAQMNRNSKGIAFTYNEPLVWYEFVLDTSRVAVREGMYCVLVTNGFINEEPLELLFQSVHAMNIDLKGFNRDFYREIGGDLDVVLRNIEKVYNAGIHVELTTLIIPGKNDDKEDLRREFEWIADLDKDIPLHISRYFPNYKYTIPPTPIEELIEIYEMAREYLNFVYLGNVWDERYESTFCPDCGNLVIRRQGYEVEKVGLDEEGKCTKCGRQIATIIG”, for which the “soluble on expression in E. coli” value is listed as “not soluble”.

In the case of “MGSDKIHHHHHHMERNEIEQLVAHGIFPYDQQAKTRLIETAISYILLKGSYAYKIKKNIKLSFLDFSTLEKRRHFCYEELRLNQRLAKDMYINVFAVSKKGKQWSISTGPAKAKEYVILMKGMNPDHQLNALLKKNRITKKPIRQLAQQLADFHQNEKSLSLTYDPFFLSREFADIEKFSSTIEKKLGVDYYKLVQTCIQLSNHFVLLQQEFISKRPCLGYFKNCHGDLHSQNIFIEKKPVIFDCIEFREAFRHIDVLNEIAFLCMDLETYGYADLSKIFLTDYIKKTGYAFGKKEQLLFTYFKAYRSCIRAKVHTIEMSQHPSSTQIKEKVKKYIEGMAGYMIEIAGKF”, the “soluble on expression in E. coli” value is recorded as “not soluble”.

As to “MGSDKIHHHHHHMERNEMLKKVEAAMPNARFKHTLGVEKAAVELAEHYHMDVEKARITALLHDYAKYYDDDKARKIIEDEGYDPRLLSFHRSLWHAPVGAYLAEKEFGITDTEILEAIRLHTTGSATMSDFDKLIYLADYTEQGRTFPGVYKARRLALKSLNEAMLFALSNTITHLVKKQQLVFPDTLDAYNYFVNLNLEGDY”, the “soluble on expression in E. coli” value was “not soluble”.

Consider “MGSDKIHHHHHHMERRRWLGAMAGVCPSCGRTLEGSGVRRLCPDCYVERYGVARIPEAVKFVYCRDCGAYRYQGGWNEGLESVEDTLREYLHMVLTVRMKPTEAVEEAWVESIELVQAFAGPGVYTALVTVAGRAGGQSLVERKIITVEASQALCPRCTARSTGRGFEAEVKVRSTAGSLGRDVKTGIARVLRRSRSIAGFVVKVDENREGLDIYLTDQTAARMLAGKLRSEFSAEVKESYKLVGRQPSGRRKGRLTISVRIPEYRPGELISVEGRPHLYLGRSGRGLVTIDLDTGRERVVDTSRTGVLAGVKRYEPGARLRRMMLLSSSGDSMVFLDVDKGMQEVVDAPRGSVRPFVESMEPGRVYEVFIHGGRIYVLRETG”, for which the “soluble on expression in E. coli” value was “not soluble”.

Take “MGSDKIHHHHHHMESENQEYQNEADLLSKQEEWCDEEFQEEDSFDIKEYDITTSPNDFNTKTMFDFIESGAVKIPGFQRNYVWDIKRASKLIESIIIGLPVPQIFLYEEARNRFLVIDGQQRLMSIYYFVKQRFPIYEKRIELRHIFDENGKIPGEVLHNDKYFTKFNLQLPSRLSNQRNKLHSLNYSTLDEYKITFDLRTIRNIIIKQNFPSDDNSSIYEVFNRLNSGGMNLKPQEIRASLYHSDFYTMLYRINALPEWRKIVGVEPDLHMKDIEILLRGFAMLVKGTEYKPSMAKFLNEFSSGCKKLEAQKIQYLEELFHSFLSSCSNLPEKAFYGKITNKFNLSMFESIFFAHCKKSFAQEIFIEDKLDYTQLERLKSDPEFINAIQNRTSSTANVKARLERAVSILAEEV”: the “soluble on expression in E. coli” value is reported as “not soluble”.

As for “MGSDKIHHHHHHMESSTNPWWVPEDFLAKLQKRVNPEKLAKYGLNDIRQAYFGIYLGIRLDDGSRAPQFLPYKPGFANHIFFLGRSGYGKTSIMRALAEGIYDYFYLNGRKALIIIIEAKYDKTKVKKLMTFREYIIQNFGYDYLLENYPWLENYLQEYSQKRPLLGKIGDFAFGWPNVEGIMTKVDSHHNQFQRHRLQPMIYPSTRIVFRPTRDLSLISRDNGMNVQVVEGKISYERLEVEDLTKFTYVNTQTNYMRILDIYWGQKKIRDPDRFLKEVIRNEYPPRSGETIEDILRSRDRTIANLRTLMNKLKSDRLFTKDPKEEFVKKLTPDRINVIDFSANSRLSDEEEAEIFNILVNYVVNEFALKKDIPVFIIVDEVQNIAKHRLGMAAINKIYREGRSLEISLISGTQYLSGLSKDLVRGATHIGIVGRLASERDAELLEEILDERFDTGEKPRSLQELFRIRKARRGKGKFSIDCEYTFTIEYRVPKTL”, the “soluble on expression in E. coli” value is reported as “not soluble”.

As to “MGSDKIHHHHHHMESYKGNKTTRKQIVSSIQMDIIKNRKIGEKLPSESEYANLFGTARSTVQKALRDLETMQLIEKVQGKGSFVIFKHPKIEMFNFRGFSEYAHQIGATPITKLIKKKKIDNGHKMLLKRLRSIKINDEIAPLTFDESILSLDDFPGLDQYNFEKGSLYDVLRNKYNTYPAIANLEVIPVAPEEEISNLLRVSKGNPLLKVNGFVYDSNSEIMEKVGIIYSDQARFKFTLGI”, the “soluble on expression in E. coli” value is given as “not soluble”.

As for “MGSDKIHHHHHHMETGLLLTLLNKTTSLSVNQKTGIEVVSCTFNDLINTFQKAIPNTNIKGQLCIPEYQRPYVWKEKQINRLLDDFIEYYKNTDNDKPLFYLGSIIVHKDEGTLKIIDGQQRITTLLLINSIINKEIKSGIQYTSTTSINNIKRNFSYLKSVHAKDVFDYADTEVLNYIDFDKINVTLVVTATEDLAYTFFETQNTGGVRLSGSDIIKAHHLRAISSEKNINYQARKWEGIESEKIESIIQNLTKIRFWDNRNWRRFPFYRDEKGIKEVLIEEFTENTKHDKEDISFYYSAVKMEAGRAFQMHESNYKQLKQPLSDGNNTLDYINDYVHLHDVLFNRSKKDYRVSDAFYDFNEKLMHGNSGTLFLKELLEICIITYVSRFGFYRLFEASLWLYRSIYSLRVSSSRNVREDSIFKFVFENQFIDNIIEVYTVDELILYLKRFKYTFNTDNLGVKESKDKHIGSLNNYFNEFGKTEDFKKTPKAFDKAFLTAIVTKIKENNEQ”, the “soluble on expression in E. coli” value is listed as “not soluble”.

For “MGSDKIHHHHHHMETQQLLSIYPQATISPRPSVAKNMVCVAIDAGKYICIDTTNLSNRELSLLELLTHTKSNATTGDAWSEFLTGRHTTAPQTTAKKLQILQFRVHFTERHADRSQWLSAIADTFEHVLHRAFITADSGYLLLTESLTDTSADLASLLALIDNDFYTNTHLFIGSTHRSSQDLPTTFALEQQLFSQNQQDTIVTLSSSLLPFLVNQHQPELQALRNSLSLDSDNKQLIRALYHTQGNVRQAASKLFLHRNTLLYRIEKFERCNGLNLKNMDDLVYCYLLTLGQVINQVEK”, the “soluble on expression in E. coli” value is “not soluble”.

Consider “MGSDKIHHHHHHMEVFCDVDDFCAVFIPEWEKTLLTDGTRKRQRAGRMTMSEVMTIIILFQMSHHRDFKNFYIGYLAHFYKSAFPNLLSYTRFLEVMPTALVPLCSDFTCLKSEPTGTEFVDSTRIKVCHNLRIHRHKTLAGLACRGKGTMGWFYGFKLHLIVNHQGGIVAAKVTPANVHDTKPMNEMVRSDMDKLYADKGFISKALSSELQEKGVTLVTNVRKNMKEKVMSLWDRAMLSRRFIIETINDQLKNISQIEHSRHRSGHGFMLNMIAGLIAYQLKDNKPQLNITSAEFNAIAVMAR”, for which the “soluble on expression in E. coli” value is recorded as “not soluble”.

On to “MGSDKIHHHHHHMEVNRLSALTPPMGWNSWDCYGASVTEEEVLGNAEYMANHLKKYGWEYIVVDIQWYEPTANSSAYNPFAPLCMDEYGRLLPATNRFPSAKNGAGFKPLSDAIHDLGLKFGIHIMRGIPRQAVYENSPVLGSTKTAREIAHTNSICPWNTDMYGVDPTKEGAQSYYNSLFELYAQWGVDFVKVDDIAASRLYDTHLEEIKMIQRAIQACGRPMVLSLSPGPAPIKYAHHFKTNANMWRITDDFWDDWSLLYQMFERCEVWEKHIGTGHWPDCGMLPLGHIGIRSVDGPGGDRWTRFTKDEQLTMMNLWAICHSPLMFGGELRDNDEWTLSLLTNEGILSINQKSVLNRFVYREEDKVAWAANGRNGEAYVALFNLHDQQKTLQFRLDMVGIMETVQLFNVWDRSFLQSLAPSESFQIELKPHQSMMLKLSPDR”, for which the “soluble on expression in E. coli” value is “not soluble”.

Regarding “MGSDKIHHHHHHMFDPETLRTFISVAETGSFSKAAERLCKTTATISYRIKLLEENTGVGLFFRTTRSVSLTAAGSHLLSQAKDWLAWLDSMPDELRQVNDGVERQVNIVVNNLLYSPQAVASLLSWLNARYPFTQFHFSRQIYMGVWDSLLYEGFSLAIGVTGTEPLANTFMLDPLGSVQWRFVMSADHPLAHVSGPLTEAQLRRFPAINIEDSARTLTKRVAWRLPGQKEIIVPDMETKIAAHLAGVGIGFVPQPLCQTLIDKNELVSCTIPTMRPPSPLSLAWHKFGGGKAVEDIVKLFTQRQPEIAGFLSIFNTVRC”, the “soluble on expression in E. coli” value is reported as “not soluble”.

For the origin of these results see the DeepSol protein solubility set.
